Consider 1 molecule from PMC5291255.

The series addresses T1, nPfh1-K338A (His6-Trx-nPfh1-K338A-FLAG) (Schizosaccharomyces pombe, UniProt Q9UUA2 =MG+22-805, K338A;internal_change).
T1 sequence: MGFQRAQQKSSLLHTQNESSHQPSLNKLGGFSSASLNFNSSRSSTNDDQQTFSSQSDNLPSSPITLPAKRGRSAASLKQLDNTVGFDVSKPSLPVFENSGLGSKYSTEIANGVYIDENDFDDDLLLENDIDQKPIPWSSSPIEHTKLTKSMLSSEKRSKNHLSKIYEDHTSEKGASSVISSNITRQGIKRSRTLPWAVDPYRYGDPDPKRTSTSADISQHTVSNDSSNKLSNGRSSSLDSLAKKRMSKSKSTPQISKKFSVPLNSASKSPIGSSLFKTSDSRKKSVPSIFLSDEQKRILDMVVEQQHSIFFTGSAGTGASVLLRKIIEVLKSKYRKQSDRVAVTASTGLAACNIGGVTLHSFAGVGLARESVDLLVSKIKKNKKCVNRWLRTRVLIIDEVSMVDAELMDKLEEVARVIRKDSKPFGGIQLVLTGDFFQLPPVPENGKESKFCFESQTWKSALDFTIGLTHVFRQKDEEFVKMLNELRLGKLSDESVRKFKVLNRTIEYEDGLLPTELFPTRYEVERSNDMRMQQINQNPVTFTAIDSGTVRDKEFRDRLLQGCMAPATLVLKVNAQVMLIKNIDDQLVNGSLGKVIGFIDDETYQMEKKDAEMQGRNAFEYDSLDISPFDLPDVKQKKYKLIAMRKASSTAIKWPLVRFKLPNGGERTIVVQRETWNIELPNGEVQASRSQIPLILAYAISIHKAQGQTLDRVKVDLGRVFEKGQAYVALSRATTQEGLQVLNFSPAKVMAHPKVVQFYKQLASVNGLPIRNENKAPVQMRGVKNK
The series can be described thus: EMSA. Background: Mobility shift assays separate free from complexed probe on a gel.

B1: Poly(A)10 (ssDNA)
DNA: AAAAAAAAAA
B1: the binding result is listed as “no binding”.
